In patent publication US20190142860A1, “NUCLEIC ACID BASED TIA-1 INHIBITORS” (Aquinnah Pharmaceuticals, Inc., priority 2015, published 2019):

Key:
[1] = target: Nucleolysin TIA-1 (endogenous mouse TIA1) (mouse) (UniProt P52912); test: TIA1 IP-MS, WT1 cortex
[2] = target: Nucleolysin TIA-1 (endogenous mouse TIA1) (mouse) (UniProt P52912); test: TIA1 IP-MS, WT2 cortex
[3] = target: Nucleolysin TIA-1 (endogenous mouse TIA1) (mouse) (UniProt P52912); test: TIA1 IP-MS, WT3 cortex
[4] = target: Nucleolysin TIA-1 (endogenous mouse TIA1) (mouse) (UniProt P52912); test: TIA1 IP-MS, tau KO 1 cortex
[5] = target: Nucleolysin TIA-1 (endogenous mouse TIA1) (mouse) (UniProt P52912); test: TIA1 IP-MS, tau KO 2 cortex
[6] = target: Nucleolysin TIA-1 (endogenous mouse TIA1) (mouse) (UniProt P52912); test: TIA1 IP-MS, tau KO 3 cortex

Sequence of UniProt P52912 (P52912 whole entry): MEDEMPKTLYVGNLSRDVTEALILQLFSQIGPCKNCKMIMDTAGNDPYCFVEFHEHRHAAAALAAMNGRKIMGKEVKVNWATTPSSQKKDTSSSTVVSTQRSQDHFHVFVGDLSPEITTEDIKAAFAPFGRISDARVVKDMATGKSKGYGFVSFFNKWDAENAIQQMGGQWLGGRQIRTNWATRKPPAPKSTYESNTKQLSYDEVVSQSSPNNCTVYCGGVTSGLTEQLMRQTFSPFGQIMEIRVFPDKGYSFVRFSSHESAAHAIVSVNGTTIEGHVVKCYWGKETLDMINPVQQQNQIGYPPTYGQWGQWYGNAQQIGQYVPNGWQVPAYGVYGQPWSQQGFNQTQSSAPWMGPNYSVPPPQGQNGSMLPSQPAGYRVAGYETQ

Substance	total ion current (normalized to TIA1 = 1000) [1]	total ion current (normalized to TIA1 = 1000) [2]	total ion current (normalized to TIA1 = 1000) [3]	total ion current (normalized to TIA1 = 1000) [4]	total ion current (normalized to TIA1 = 1000) [5]	total ion current (normalized to TIA1 = 1000) [6]
Protein kinase C and casein kinase substrate in neurons protein 1 (from UniProt Q61644 1-441)	0	70.2	18.4	0	31.2	0
Protein kinase C epsilon type (from UniProt P16054 1-737)	0	78.7	0	0	0	0
Putative adenosylhomocysteinase 3 (from UniProt Q68FL4 2-613)	2.62	76.3	45.1	8.48	72.5	0
Pyridoxal kinase (from UniProt Q8K183 1-312)	0	80.3	0	0	104	0
Pyruvate dehydrogenase E1 component subunit beta, mitochondrial (from UniProt Q9D051 31-359)	0	60.4	95.5	0	51	0
RNA-binding protein EWS (from UniProt Q61545 1-655)	6.73	32.5	0	0	0	0
Ras-related protein Rab-5A (from UniProt Q9CQD1 1-215)	0	126	302	0	185	0
Septin-5 (from UniProt Q9Z2Q6 1-369)	0	194	114	0	85.5	0

Next, values leading:

total ion current (normalized to TIA1 = 1000) [1]	total ion current (normalized to TIA1 = 1000) [2]	total ion current (normalized to TIA1 = 1000) [3]	total ion current (normalized to TIA1 = 1000) [4]	total ion current (normalized to TIA1 = 1000) [5]	total ion current (normalized to TIA1 = 1000) [6]	Substance
0	69.2	13.8	0	36	0	Protein disulfide-isomerase A3 (from UniProt P27773 25-505)
39.3	0	0	30.3	0	0	Protein kinase C gamma type (from UniProt P63318 1-697)
0	0	49.8	0	0	0	Puromycin-sensitive aminopeptidase (from UniProt Q11011 1-920)
0	40.4	0	17	0	0	Rabphilin-3A (from UniProt P47708 1-681)
5.71	0	0	7.66	0	0	Serine protease HTRA1 (from UniProt Q9R118 23-480)
0	65.8	0	0	0	0	Serine--tRNA ligase, cytoplasmic (from UniProt P26638 1-512)
